Kd data for one substance are collected here from patent US20190309092A1.

As a reminder, the Kd is the free concentration of one partner at which half of the binding sites on the other are occupied at equilibrium, for simple one-to-one binding. Low values mean tighter binding, high ones weaker binding.

The test concerns the target TNFα (UniProt P01375). Description: SPR, Biacore T100, single-cycle kinetics, 1:1 Langmuir fit; Target 1 column. (In general: Surface plasmon resonance follows binding to a sensor surface in real time, without labels.)
Chain of UniProt P01375 (P01375 77-233 limits assumed): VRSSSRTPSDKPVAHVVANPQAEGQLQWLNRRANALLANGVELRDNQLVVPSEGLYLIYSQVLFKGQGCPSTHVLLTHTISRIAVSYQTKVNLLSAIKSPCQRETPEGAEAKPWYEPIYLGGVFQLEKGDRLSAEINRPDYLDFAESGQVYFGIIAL

With Humira IgG(Full) (antibody), the Kd amounted to 64.3 pM.
